Measurements taken from paper PMC8034659.
Changes are numbered by the printed parent chain.

How the values were obtained:
Assay in all cases: SPR
TrfA E361K = molecular target: T1, TrfA E361K (plasmid RK2, UniProt P07676 98-382, G254D;S267L;E361K)
T1 sequence: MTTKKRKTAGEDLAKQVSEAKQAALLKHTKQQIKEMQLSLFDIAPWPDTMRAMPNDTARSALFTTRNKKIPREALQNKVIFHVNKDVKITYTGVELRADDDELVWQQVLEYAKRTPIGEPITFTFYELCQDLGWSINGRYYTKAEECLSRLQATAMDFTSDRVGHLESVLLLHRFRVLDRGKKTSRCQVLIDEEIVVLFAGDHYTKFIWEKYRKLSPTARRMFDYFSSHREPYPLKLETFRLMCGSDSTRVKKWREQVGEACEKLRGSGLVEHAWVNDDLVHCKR

TrfA R169E = molecular target: T2, TrfA R169E (plasmid RK2, UniProt P07676 98-382, R169E;G254D;S267L)
T2 sequence: T1 sequence with R72E, K264E

TrfA A171T = molecular target: T3, TrfA A171T (plasmid RK2, UniProt P07676 98-382, A171T;G254D;S267L)
T3 sequence: T1 sequence with A74T, K264E

TrfA R347E = molecular target: T4, TrfA R347E (plasmid RK2, UniProt P07676 98-382, G254D;S267L;R347E)
T4 sequence: T1 sequence with R250E, K264E

TrfA K165E = molecular target: T5, TrfA K165E (plasmid RK2, UniProt P07676 98-382, K165E;G254D;S267L)
T5 sequence: T1 sequence with K68E, K264E

TrfA N234E = molecular target: T6, TrfA N234E (plasmid RK2, UniProt P07676 98-382, N234E;G254D;S267L)
T6 sequence: T1 sequence with N137E, K264E

TrfA P168E = molecular target: T7, TrfA P168E (plasmid RK2, UniProt P07676 98-382, P168E;G254D;S267L)
T7 sequence: T1 sequence with P71E, K264E

B1: five RK2 iterons (ItT/ItB) (dsDNA)
DNA 1: CCTGCGGTATTGACACTTGAGGGGCGCGACTACTGACAGATGAGGGGCGCGATCCTTGACACTTGAGGGGCAGAGTGATGACAGATGAGGGGCGCACCTATTGACATTTGAGGGGCTGTCCACAGGCAG
DNA 2: CTGCCTGTGGACAGCCCCTCAAATGTCAATAGGTGCGCCCCTCATCTGTCATCACTCTGCCCCTCAAGTGTCAAGGATCGCGCCCCTCATCTGTCAGTAGTCGCGCCCCTCAAGTGTCAATACCGCAGG
B1: binds (TrfA E361K); no binding (TrfA R169E); binds (TrfA A171T). B1: no binding (TrfA R347E); no binding (TrfA K165E); no binding (TrfA N234E). B1: binds (TrfA P168E).
